Test results as given in patent US20230000998A1 (OSSIANIX, published 2023).

Tests used:
[1] = target: T1, mouse TfR-1 (transferrin receptor 1), purified recombinant (mouse, UniProt Q62351 89-763, limits assumed); assay: kinetic ELISA on coated recombinant TfR-1 (Vmax at 370 nm); ND: not detected
T1 construct: also called mTfR1
Experimental: (§1) The TrkB fusion constructs were assessed for binding to recombinant human, mouse, rat and cynomolgus TfR1. […] When these conjugates were compared to a control VNAR-Fc (open circles), no loss of affinity for TrkB(HC2N) (squares) was observed and only minimal loss for TrkB(HV2N) (triangles).
(§2) TfR-1-binding ELISA. Nunc MaxiSorp plates (Thermo Fisher) were coated with 100 μl of 1 μg/ml of purified, recombinant mouse, human, rat or cynomolgus TfR-1, or with human serum albumin (HAS; Sigma) and incubated at 4° C. overnight. Plates were incubated with blocking buffer (2.5% non-fat dry milk in PBS with 0.1% Tween20; “PBST”) for 1 hat room temperature. Antibody or conjugate solutions were incubated in PBST for 30 min. The blocked solutions (100 μl) were transferred to the blocked plates and incubated for 1 h before washing with PBST. After washing, the plates were incubated for 30 min with a goat anti-human Fc-peroxidase antibody diluted 1:5000 (Sigma) in PBST. The plates were washed and developed with SureBlue™ TMB substrate (VWR). The development of the reaction was measured at 370 nm in real time providing data for Vmax analysis. EC50 values were calculated using 4-parametric non-linear regression (Prism).

[2] = target: T2, human TfR-1 (transferrin receptor 1), purified recombinant (human, UniProt P02786 89-760, limits assumed); assay: as above
T2 construct: Coated on ELISA plates at 1 ug/ml; also called hTfR1
T2 sequence (P02786 89-760 limits assumed): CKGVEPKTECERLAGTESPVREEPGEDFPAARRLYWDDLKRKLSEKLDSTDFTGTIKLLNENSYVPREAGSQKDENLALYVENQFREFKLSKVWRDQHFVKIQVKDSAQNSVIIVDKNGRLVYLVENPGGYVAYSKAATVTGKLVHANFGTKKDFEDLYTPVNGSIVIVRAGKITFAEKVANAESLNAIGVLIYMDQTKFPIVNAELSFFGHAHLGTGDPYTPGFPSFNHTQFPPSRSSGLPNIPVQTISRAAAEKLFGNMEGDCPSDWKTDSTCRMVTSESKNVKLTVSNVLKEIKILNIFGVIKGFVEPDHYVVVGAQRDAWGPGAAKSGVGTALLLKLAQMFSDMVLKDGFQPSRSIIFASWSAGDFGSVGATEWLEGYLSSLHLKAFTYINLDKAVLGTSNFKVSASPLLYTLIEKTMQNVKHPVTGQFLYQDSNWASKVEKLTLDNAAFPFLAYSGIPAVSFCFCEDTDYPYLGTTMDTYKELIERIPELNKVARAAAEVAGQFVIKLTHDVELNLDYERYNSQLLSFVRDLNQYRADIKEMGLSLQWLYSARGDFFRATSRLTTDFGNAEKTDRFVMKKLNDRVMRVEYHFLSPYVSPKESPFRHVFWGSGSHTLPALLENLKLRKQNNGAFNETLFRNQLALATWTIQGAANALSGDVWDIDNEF
Experimental: as §1, §2

[3] = target: T3, cynomolgus TfR-1 (transferrin receptor 1), purified recombinant (cynomolgus, UniProt H9EXL1 89-760 (rhesus entry)); assay: as above
T3 construct: also called cTfR1
T3 sequence (chain, as listed by the source): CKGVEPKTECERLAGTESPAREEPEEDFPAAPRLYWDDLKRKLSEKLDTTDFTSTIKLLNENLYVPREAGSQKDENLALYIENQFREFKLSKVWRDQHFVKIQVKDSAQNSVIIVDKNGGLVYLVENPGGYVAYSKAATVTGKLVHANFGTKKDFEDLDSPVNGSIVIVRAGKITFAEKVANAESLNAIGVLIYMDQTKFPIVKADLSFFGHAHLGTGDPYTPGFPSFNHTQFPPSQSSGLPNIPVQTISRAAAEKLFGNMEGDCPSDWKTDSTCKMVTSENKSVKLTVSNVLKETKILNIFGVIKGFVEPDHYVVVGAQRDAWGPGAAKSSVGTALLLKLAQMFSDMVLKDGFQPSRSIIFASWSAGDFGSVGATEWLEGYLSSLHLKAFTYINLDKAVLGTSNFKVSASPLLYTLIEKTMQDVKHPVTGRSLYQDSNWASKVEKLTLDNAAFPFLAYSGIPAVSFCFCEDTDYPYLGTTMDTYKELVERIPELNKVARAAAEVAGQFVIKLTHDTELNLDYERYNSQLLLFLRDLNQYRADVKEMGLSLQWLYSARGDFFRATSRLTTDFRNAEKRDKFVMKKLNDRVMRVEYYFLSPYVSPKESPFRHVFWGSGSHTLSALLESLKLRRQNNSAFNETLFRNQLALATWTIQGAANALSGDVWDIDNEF
Experimental: as §1, §2

[4] = target: T4, rat TfR-1 (transferrin receptor 1), purified recombinant (rat, UniProt Q99376 89-761, limits assumed); assay: as above
T4 construct: also called rTfR1
T4 sequence (Q99376 89-761 limits assumed): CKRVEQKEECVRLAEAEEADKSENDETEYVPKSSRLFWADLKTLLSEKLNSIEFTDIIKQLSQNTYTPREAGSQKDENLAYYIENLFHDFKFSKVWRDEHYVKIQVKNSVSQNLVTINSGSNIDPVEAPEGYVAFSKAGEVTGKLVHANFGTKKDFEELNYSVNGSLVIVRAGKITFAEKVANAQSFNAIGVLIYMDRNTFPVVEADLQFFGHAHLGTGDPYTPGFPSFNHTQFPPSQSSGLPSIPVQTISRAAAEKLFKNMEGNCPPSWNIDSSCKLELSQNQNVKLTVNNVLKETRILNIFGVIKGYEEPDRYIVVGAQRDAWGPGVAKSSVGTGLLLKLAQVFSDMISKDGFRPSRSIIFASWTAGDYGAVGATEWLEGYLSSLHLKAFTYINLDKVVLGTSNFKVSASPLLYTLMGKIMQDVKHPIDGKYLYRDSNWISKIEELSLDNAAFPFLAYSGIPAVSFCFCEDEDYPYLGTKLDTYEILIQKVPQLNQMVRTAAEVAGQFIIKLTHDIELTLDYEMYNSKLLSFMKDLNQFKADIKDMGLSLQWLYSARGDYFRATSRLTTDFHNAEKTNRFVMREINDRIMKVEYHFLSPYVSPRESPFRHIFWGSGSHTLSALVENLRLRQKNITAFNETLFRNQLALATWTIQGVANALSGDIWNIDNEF
Experimental: as §1, §2

[5] = target: T5, human serum albumin (human, UniProt P02768 25-609); assay: kinetic ELISA on coated HSA (negative control); ND: not detected
T5 construct: also called HSA; HAS
T5 sequence (P02768 25-609 limits assumed): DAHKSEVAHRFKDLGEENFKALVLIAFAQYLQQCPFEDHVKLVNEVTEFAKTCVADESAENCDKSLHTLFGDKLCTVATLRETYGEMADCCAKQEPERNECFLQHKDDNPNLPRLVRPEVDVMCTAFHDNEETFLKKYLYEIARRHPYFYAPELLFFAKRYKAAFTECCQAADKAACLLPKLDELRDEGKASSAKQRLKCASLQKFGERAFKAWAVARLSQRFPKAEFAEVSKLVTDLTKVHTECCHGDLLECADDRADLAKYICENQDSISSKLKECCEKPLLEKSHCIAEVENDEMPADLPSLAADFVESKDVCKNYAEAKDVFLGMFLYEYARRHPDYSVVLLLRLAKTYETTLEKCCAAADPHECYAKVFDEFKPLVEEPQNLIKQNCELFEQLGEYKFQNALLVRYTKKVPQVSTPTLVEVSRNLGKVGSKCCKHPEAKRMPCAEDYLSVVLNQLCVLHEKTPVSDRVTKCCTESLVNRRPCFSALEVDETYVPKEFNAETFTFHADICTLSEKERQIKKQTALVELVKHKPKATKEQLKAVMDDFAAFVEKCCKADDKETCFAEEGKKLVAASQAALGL
Experimental: as §1, §2

[6] = target: human TrkB receptor (overexpressed on TrkB-NFAT-bla CHO-K1 reporter cells) (human, UniProt Q16620 32-822); assay: cell-based or functional assay
Sequence of human TrkB receptor (overexpressed on TrkB-NFAT-bla CHO-K1 reporter cells) (Q16620 32-822): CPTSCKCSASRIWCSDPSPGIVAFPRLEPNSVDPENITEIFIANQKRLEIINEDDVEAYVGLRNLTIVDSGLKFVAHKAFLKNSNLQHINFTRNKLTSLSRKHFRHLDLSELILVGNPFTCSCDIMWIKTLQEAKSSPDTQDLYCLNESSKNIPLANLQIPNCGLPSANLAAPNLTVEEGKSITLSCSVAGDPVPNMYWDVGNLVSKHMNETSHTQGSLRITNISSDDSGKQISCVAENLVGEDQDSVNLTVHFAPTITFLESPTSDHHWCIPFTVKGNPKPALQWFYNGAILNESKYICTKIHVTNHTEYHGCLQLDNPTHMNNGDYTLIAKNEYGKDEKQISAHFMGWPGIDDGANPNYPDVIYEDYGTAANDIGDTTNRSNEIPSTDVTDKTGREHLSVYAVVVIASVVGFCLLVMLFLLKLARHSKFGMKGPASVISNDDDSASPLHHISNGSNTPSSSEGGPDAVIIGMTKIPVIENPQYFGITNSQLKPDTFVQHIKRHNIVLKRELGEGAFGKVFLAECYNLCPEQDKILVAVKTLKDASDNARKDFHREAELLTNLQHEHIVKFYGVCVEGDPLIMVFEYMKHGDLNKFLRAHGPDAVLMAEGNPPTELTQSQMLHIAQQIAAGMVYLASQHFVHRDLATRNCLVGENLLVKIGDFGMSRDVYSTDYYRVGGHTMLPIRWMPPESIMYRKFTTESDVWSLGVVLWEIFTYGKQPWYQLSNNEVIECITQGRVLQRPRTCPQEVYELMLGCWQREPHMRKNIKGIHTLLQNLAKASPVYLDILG

[7] = target: T1, mouse TfR-1 (transferrin receptor 1), …; assay: kinetic ELISA on coated recombinant TfR-1, anti-human Fc-HRP detection, Vmax at 370 nm
Experimental: as §1, §2

[8] = target: T2, human TfR-1 (transferrin receptor 1), …; assay: as above
Experimental: as §1, §2

[9] = target: T3, cynomolgus TfR-1 (transferrin receptor …); assay: as above
Experimental: as §1, §2

[10] = target: T4, rat TfR-1 (transferrin receptor 1), …; assay: as above
Experimental: as §1, §2

T1 sequence (Q62351 89-763 limits assumed): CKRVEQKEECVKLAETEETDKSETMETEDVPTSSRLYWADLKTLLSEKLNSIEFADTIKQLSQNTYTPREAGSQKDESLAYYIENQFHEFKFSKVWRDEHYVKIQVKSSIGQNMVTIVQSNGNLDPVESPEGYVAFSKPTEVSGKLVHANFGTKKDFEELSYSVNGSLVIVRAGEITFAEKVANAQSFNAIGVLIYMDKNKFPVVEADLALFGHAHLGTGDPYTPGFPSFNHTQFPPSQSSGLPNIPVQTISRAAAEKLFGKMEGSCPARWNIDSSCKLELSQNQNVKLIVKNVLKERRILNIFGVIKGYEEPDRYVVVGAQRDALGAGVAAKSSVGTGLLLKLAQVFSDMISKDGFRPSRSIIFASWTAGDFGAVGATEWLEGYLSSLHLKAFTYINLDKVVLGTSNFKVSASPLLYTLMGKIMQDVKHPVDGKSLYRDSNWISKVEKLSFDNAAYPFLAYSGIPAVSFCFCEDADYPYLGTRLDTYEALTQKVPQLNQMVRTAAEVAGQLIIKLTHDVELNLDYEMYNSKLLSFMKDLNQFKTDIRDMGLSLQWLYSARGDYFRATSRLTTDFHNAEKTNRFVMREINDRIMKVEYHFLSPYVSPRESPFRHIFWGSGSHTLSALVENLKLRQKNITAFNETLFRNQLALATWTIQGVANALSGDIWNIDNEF

B1: unconjugated TrkB-AAb (mouse-human chimeric 29D7 TrkB agonist antibody, human IgG1 LALA / human kappa) (antibody, V domains shown)
VH: EVQLQQSGPELVKPGASMKISCKTSGYSFTAYFMNWVKQSHGKSLEWIGRINPNNGDTFYTQKFKGKATLTVDKSSNTAHMELLSLTSEDSAIYYCGRRDYFGAMDYWGQGTSVTVSS
VL: AIVLIQSPATLSVTPGDSVSLSCRASQTISNNLHWYQQKSHESPRLLIKSASLAISGIPSRFSGSGSGTDFTLSISSVETEDFGMYFCQQSNSWPNTFGGGTKLEIKR
notes: VH and VL of mouse 29D7 fused to human IgG1 and human kappa constant regions; Copies of 2 are inferred from the IgG1 format; also called unconjugated TrkB antibody; TrkB 29D7
binding result [1]: no binding
binding result [2]: no binding
binding result [3]: no binding
binding result [4]: no binding
binding result [5]: no binding
maximal reporter response as percentage of the BDNF response (TrkB-NFAT-bla CHO-K1 cells) [6]: ~50%

B2: VNAR-Fc control conjugate (TXB4 fused to the N-terminal end of the Fc domain) (Fc fusion)
chain: ARVDQTPQTITKETGESLTINCVLRDSNCALSSTYWYRKKSGSTNEENISKGGRYVETVNSGSKSFSLRINDLTVEDSGTYRCNVVQYPQYPNYFWCDVYGDGTAVTVNA
notes: also called control VNAR-Fc fusion; not shown: Fc domain
EC50 [7]: 0.54 nM
EC50 [8]: 0.78 nM
EC50 [9]: 1 nM
EC50 [10]: 1.37 nM
binding result [5]: no binding

B3: TrkB(HC2N) conjugate (TXB4 VNAR fused to the N-terminus of the TrkB antibody heavy chain via a 3xG4S linker) (bispecific antibody, human IgG1, kappa, L234A L235A)
light: AIVLIQSPATLSVTPGDSVSLSCRASQTISNNLHWYQQKSHESPRLLIKSASLAISGIPSRFSGSGSGTDFTLSISSVETEDFGMYFCQQSNSWPNTFGGGTKLEIKRTVAAPSVFIFPPSDEQLKSGTASVVCLLNNFYPREAKVQWKVDNALQSGNSQESVTEQDSKDSTYSLSSTLTLSKADYEKHKVYACEVTHQGLSSPVTKSFNRGEC
heavy: not shown
notes: Copies of 2 are inferred from the IgG1 format; also called TXB4-TrkB-AAb conjugate
EC50 [7]: 0.63 nM
EC50 [8]: 0.74 nM
EC50 [9]: 0.79 nM
EC50 [10]: 4.03 nM
binding result [5]: no binding
agonist activity relative to TrkB(HV2N) (TrkB-NFAT-bla CHO-K1 cells) [6]: ~7 fold less than TrkB(HV2N)
maximal reporter response as percentage of the BDNF response (TrkB-NFAT-bla CHO-K1 cells) [6]: ~50%

B4: TrkB(HV2N) conjugate (TXB4 VNAR inserted between the CH1 and Fc domains of the TrkB antibody heavy chain) (bispecific antibody, IgG1)
light: B3 light
heavy: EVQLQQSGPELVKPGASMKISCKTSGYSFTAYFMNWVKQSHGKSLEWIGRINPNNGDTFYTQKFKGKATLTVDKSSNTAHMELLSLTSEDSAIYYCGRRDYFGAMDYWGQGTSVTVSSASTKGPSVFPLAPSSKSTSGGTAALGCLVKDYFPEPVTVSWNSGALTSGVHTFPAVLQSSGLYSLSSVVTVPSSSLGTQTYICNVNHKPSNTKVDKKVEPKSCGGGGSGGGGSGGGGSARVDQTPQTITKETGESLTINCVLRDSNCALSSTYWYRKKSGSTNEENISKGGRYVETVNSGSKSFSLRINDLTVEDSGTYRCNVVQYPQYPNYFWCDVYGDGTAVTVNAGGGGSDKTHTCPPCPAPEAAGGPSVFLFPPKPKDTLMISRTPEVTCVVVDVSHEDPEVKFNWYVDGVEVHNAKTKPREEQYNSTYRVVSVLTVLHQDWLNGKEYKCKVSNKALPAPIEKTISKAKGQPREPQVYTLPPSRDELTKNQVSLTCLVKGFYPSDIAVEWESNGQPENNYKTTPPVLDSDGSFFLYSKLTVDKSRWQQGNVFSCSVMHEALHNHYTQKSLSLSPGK
notes: Copies of 2 are inferred from the IgG1 format; also called TrkB1-TXB4; TXB4-TrkB-AAb conjugate
EC50 [7]: 5.07 nM
EC50 [8]: 5.3 nM
EC50 [9]: 2.04 nM
EC50 [10]: 61 nM
binding result [5]: no binding
maximal reporter response as percentage of the BDNF response (TrkB-NFAT-bla CHO-K1 cells) [6]: ~50%
